Laboratory results: publication PMC8508734 (International Journal of Molecular Sciences, 2021)
Values belong to the molecule of their own block, whether it stands above or below them.

Key:
[1] = target: T1, histamine H3 receptor (H3R) (Rattus norvegicus, UniProt Q9QYN8); test: BRET between H3R-RLuc and H3R-YFP in HEK […] cells; also […]GTPγS binding (inverse agonist); assay type: cell-based
T1 construct: gene Hrh3; long isoform H3(445)R, C-terminal RLuc / YFP fusions

[2] = target: T2, H3R-RLuc (rat histamine H3 receptor, long isoform H3(445)R, fused to Renilla Luciferase) (rat, UniProt Q9QYN8 1-445); test: FRET or BRET; BRET donor saturation curves in intact living HEK 293 cells, constant RLuc fusion and increasing YFP fusion, 48 h after transfection, HBSS, 25 °C, coelenterazine H 5 µM; without or with imetit or thioperamide (100 nM); details: partners not purified
T2 construct: histamine H3 receptor, rat, long isoform H3(445)R (445 residues), cDNA amplified without its stop codon and cloned into pRL-CMV-RLuc; The same construct was expressed in HEK 293 cells and in rat cortical neurons; the assay tells which; also called H3R-Luc; source: rat cortical neurons in primary culture, transfected (lipofectamine 2000); not shown: Renilla Luciferase (RLuc), C-terminal, kept

Molecule: S=C(NC1CCCCC1)N1CCC(c2cnc[nH]2)CC1 [thioperamide]
- EC50 [1]: 2 ± 1 nM

- BRET50 (basal) [2]: 1.24 acceptor/donor ratio
- BRET50 (with imetit 100 nM) [2]: 1.19 acceptor/donor ratio
- BRET50 (with thioperamide 100 nM) [2]: 1.56 acceptor/donor ratio
B1: H3R-YFP (rat histamine H3 receptor, long isoform H3(445)R, fused to Yellow Fluorescent Protein) (receptor, UniProt Q9QYN8 1-445, looked up)
chain: MERAPPDGLMNASGTLAGEAAAAGGARGFSAAWTAVLAALMALLIVATVLGNALVMLAFVADSSLRTQNNFFLLNLAISDFLVGAFCIPLYVPYVLTGRWTFGRGLCKLWLVVDYLLCASSVFNIVLISYDRFLSVTRAVSYRAQQGDTRRAVRKMALVWVLAFLLYGPAILSWEYLSGGSSIPEGHCYAEFFYNWYFLITASTLEFFTPFLSVTFFNLSIYLNIQRRTRLRLDGGREAGPEPPPDAQPSPPPAPPSCWGCWPKGHGEAMPLHRYGVGEAGPGVEAGEAALGGGSGGGAAASPTSSSGSSSRGTERPRSLKRGSKPSASSASLEKRMKMVSQSITQRFRLSRDKKVAKSLAIIVSIFGLCWAPYTLLMIIRAACHGRCIPDYWYETSFWLLWANSAVNPVLYPLCHYSFRRAFTKLLCPQKLKVQPHGSLEQCWK
notes: histamine H3 receptor, rat, long isoform H3(445)R (445 residues), cDNA amplified without its stop codon and cloned into pEYFP-N1; The same construct was expressed in HEK 293 cells and in rat cortical neurons; the assay tells which; also called C-terminal YFP-fused H3R; source: rat cortical neurons in primary culture, transfected (lipofectamine 2000); not shown: YFP, C-terminal, kept
